For 19 molecules, Kd results are on record in the FLAb antibody collection (doi:10.1101/2023.12.08.570889).

The target in the assay is TSLP, Q969D9. The experiment in a line: Kd (SPR).

B1: unnamed (protein)
chain 1: QMQLVESGGGVVQPGRSLRLSCAASGFTFRTYGMHWVRQAPGKGLEWVAVIWYDGSNKHYADSVKGRFTITRDNSKNTLNLQMNSLRAEDTAVYYCARAPRYDETWEAFDVWGQGTMVTVSS
chain 2: SYVLTQPPSVSVAPGQTARITCGGNNLGSKSVHWYQQKPGQAPVLVVYDDSDRPSWIPERFSGSNSGNTATLTISRGEAGDEADYYCQVWDSSSDHVVFGGGTKLTVL
One may read the Kd as the concentration at which binding is half-saturated. As for B1, the Kd stood at 141 nM.

B2: unnamed (protein)
chain 1: QMQLVESGGGVVQPGRSLRLSCAASGFTFSTYAMHWVRQAPGKGLEWVAVIWYDGSNKHYADSVKGRFTITRDNSKNTLNLQMNSLRAEDTAVYYCARAPRYDEYWEAFDVWGQGTMVTVSS
chain 2: SYVLTQPPSVSVAPGQTARITCGGNNLGSKSVHWYQQKPGQAPVLVVYDDSDRPSWIPERFSGSNSGNTATLTISRGEAGDEADYYCQVWDSSSDHVVFGGGTKLTVL
B2 displayed a dissociation constant (Kd) of 633 nM.

B3: unnamed (protein)
chain 1: QMQLVESGGGVVQPGRSLRLSCAASGFTFRTYGMHWVRQAPGKGLEWVAVIWYDGSNKHYADSVKGRFTITRDNSKNTLNLQMNSLRAEDTAVYYCARAPRYYDYYEAFDVWGQGTMVTVSS
chain 2: SYVLTQPPSVSVAPGQTARITCGGNNLGSKSVHWYQQKPGQAPVLVVYDDSDRPSWIPERFSGSNSGNTATLTISRGEAGDEADYYCQVWDSSSDHVVFGGGTKLTVL
Regarding B3, the dissociation constant Kd was 33.2 nM.

B4: unnamed (protein)
chain 1: QMQLVESGGGVVQPGRSLRLSCAASGFTFRTYGMHWVRQAPGKGLEWVAVIWYDGSNKHYADSVKGRFTITRDNSKNTLNLQMNSLRAEDTAVYYCARAPRYDDYYDAFDVWGQGTMVTVSS
chain 2: SYVLTQPPSVSVAPGQTARITCGGNNLGSKSVHWYQQKPGQAPVLVVYDDSDRPSWIPERFSGSNSGNTATLTISRGEAGDEADYYCQVWDSSSDHVVFGGGTKLTVL
In turn, B4 displayed a Kd of 163 nM.

B5: unnamed (protein)
chain 1: QMQLVESGGGVVQPGRSLRLSCAASGFTFRTYGMHWVRQAPGKGLEWVAVIWYDGSNKHYADSVKGRFTITRDNSKNTLNLQMNSLRAEDTAVYYCARAPRYDEEYEAFDVWGQGTMVTVSS
chain 2: SYVLTQPPSVSVAPGQTARITCGGNNLGSKSVHWYQQKPGQAPVLVVYDDSDRPSWIPERFSGSNSGNTATLTISRGEAGDEADYYCQVWDSSSDHVVFGGGTKLTVL
B5 returned a dissociation constant Kd of 78.9 nM.

B6: unnamed (protein)
chain 1: QMQLVESGGGVVQPGRSLRLSCAASGFTFRTYGMHWVRQAPGKGLEWVAVIWYDGSNKHYADSVKGRFTITRDNSKNTLNLQMNSLRAEDTAVYYCARAPRYDYYWEAFDVWGQGTMVTVSS
chain 2: SYVLTQPPSVSVAPGQTARITCGGNNLGSKSVHWYQQKPGQAPVLVVYDDSDRPSWIPERFSGSNSGNTATLTISRGEAGDEADYYCQVWDSSSDHVVFGGGTKLTVL
Take B6: the equilibrium dissociation constant (Kd) was 175 nM.

B7: unnamed (protein)
chain 1: QMQLVESGGGVVQPGRSLRLSCAASGFTFRTYGMHWVRQAPGKGLEWVAVIWYDGSNKHYADSVKGRFTITRDNSKNTLNLQMNSLRAEDTAVYYCARAPRYDWYYEAFDVWGQGTMVTVSS
chain 2: SYVLTQPPSVSVAPGQTARITCGGNNLGSKSVHWYQQKPGQAPVLVVYDDSDRPSWIPERFSGSNSGNTATLTISRGEAGDEADYYCQVWDSSSDHVVFGGGTKLTVL
In turn, B7 gave a Kd of 48.2 nM.

B8: unnamed (protein)
chain 1: QMQLVESGGGVVQPGRSLRLSCAASGFTFRTYGMHWVRQAPGKGLEWVAVIWYDGSNKHYADSVKGRFTITRDNSKNTLNLQMNSLRAEDTAVYYCARAPRYYDAYEAFDVWGQGTMVTVSS
chain 2: SYVLTQPPSVSVAPGQTARITCGGNNLGSKSVHWYQQKPGQAPVLVVYDDSDRPSWIPERFSGSNSGNTATLTISRGEAGDEADYYCQVWDSSSDHVVFGGGTKLTVL
The molecule B8 returned an equilibrium dissociation constant (Kd) of 33.5 nM.

B9: unnamed (protein)
chain 1: QMQLVESGGGVVQPGRSLRLSCAASGFTFRTYGMHWVRQAPGKGLEWVAVIWYDGSNKHYADSVKGRFTITRDNSKNTLNLQMNSLRAEDTAVYYCARAPRYYYYYEAFDVWGQGTMVTVSS
chain 2: SYVLTQPPSVSVAPGQTARITCGGNNLGSKSVHWYQQKPGQAPVLVVYDDSDRPSWIPERFSGSNSGNTATLTISRGEAGDEADYYCQVWDSSSDHVVFGGGTKLTVL
The molecule B9 displayed a Kd of 52.3 nM.

B10: unnamed (protein)
chain 1: QMQLVESGGGVVQPGRSLRLSCAASGFTFRTYGMHWVRQAPGKGLEWVAVIWYDGSNKHYADSVKGRFTITRDNSKNTLNLQMNSLRAEDTAVYYCARAPRYDDYVEAFDVWGQGTMVTVSS
chain 2: SYVLTQPPSVSVAPGQTARITCGGNNLGSKSVHWYQQKPGQAPVLVVYDDSDRPSWIPERFSGSNSGNTATLTISRGEAGDEADYYCQVWDSSSDHVVFGGGTKLTVL
Take B10: the Kd came out at 44.6 nM.

B11: unnamed (protein)
chain 1: QMQLVESGGGVVQPGRSLRLSCAASGFTFRTYGMHWVRQAPGKGLEWVAVIWYDGSNKHYADSVKGRFTITRDNSKNTLNLQMNSLRAEDTAVYYCARAPRYYEYLEAFDVWGQGTMVTVSS
chain 2: SYVLTQPPSVSVAPGQTARITCGGNNLGSKSVHWYQQKPGQAPVLVVYDDSDRPSWIPERFSGSNSGNTATLTISRGEAGDEADYYCQVWDSSSDHVVFGGGTKLTVL
Molecule B11 registered a Kd of 31.9 nM.

B12: unnamed (protein)
chain 1: QMQLVESGGGVVQPGRSLRLSCAASGFTFRTYGMHWVRQAPGKGLEWVAVIWYDGSNKHYADSVKGRFTITRDNSKNTLNLQMNSLRAEDTAVYYCARSPRYDDYWEAFDVWGQGTMVTVSS
chain 2: SYVLTQPPSVSVAPGQTARITCGGNNLGSKSVHWYQQKPGQAPVLVVYDDSDRPSWIPERFSGSNSGNTATLTISRGEAGDEADYYCQVWDSSSDHVVFGGGTKLTVL
The molecule B12 yielded a Kd of 197 nM.

B13: unnamed (protein)
chain 1: QMQLVESGGGVVQPGRSLRLSCAASGFTFRTYGMHWVRQAPGKGLEWVAVIWYDGSNKHYADSVKGRFTITRDNSKNTLNLQMNSLRAEDTAVYYCARAPRYDEYLEAFDVWGQGTMVTVSS
chain 2: SYVLTQPPSVSVAPGQTARITCGGNNLGSKSVHWYQQKPGQAPVLVVYDDSDRPSWIPERFSGSNSGNTATLTISRGEAGDEADYYCQVWDSSSDHVVFGGGTKLTVL
As for B13, the dissociation constant (Kd) was 129 nM.

B14: unnamed (protein)
chain 1: QMQLVESGGGVVQPGRSLRLSCAASGFTFRTYGMHWVRQAPGKGLEWVAVIWYDGSNKHYADSVKGRFTITRDNSKNTLNLQMNSLRAEDTAVYYCARAPRYDDLWEAFDVWGQGTMVTVSS
chain 2: SYVLTQPPSVSVAPGQTARITCGGNNLGSKSVHWYQQKPGQAPVLVVYDDSDRPSWIPERFSGSNSGNTATLTISRGEAGDEADYYCQVWDSSSDHVVFGGGTKLTVL
Take B14: the Kd was 61.1 nM.

B15: unnamed (protein)
chain 1: QMQLVESGGGVVQPGRSLRLSCAASGFTFRTYGMHWVRQAPGKGLEWVAVIWYDGSNKHYADSVKGRFTITRDNSKNTLNLQMNSLRAEDTAVYYCARAPRYDEHWEAFDVWGQGTMVTVSS
chain 2: SYVLTQPPSVSVAPGQTARITCGGNNLGSKSVHWYQQKPGQAPVLVVYDDSDRPSWIPERFSGSNSGNTATLTISRGEAGDEADYYCQVWDSSSDHVVFGGGTKLTVL
In turn, B15 had a dissociation constant Kd of 170 nM.

B16: unnamed (protein)
chain 1: QMQLVESGGGVVQPGRSLRLSCAASGFTFSTFAMHWVRQAPGKGLEWVAVIWYDGSNKHYADSVKGRFTITRDNSKNTLNLQMNSLRAEDTAVYYCARAPRYDWYYEAFDVWGQGTMVTVSS
chain 2: SYVLTQPPSVSVAPGQTARITCGGNNLGSKSVHWYQQKPGQAPVLVVYDDSDRPSWIPERFSGSNSGNTATLTISRGEAGDEADYYCQVWDSSSDHVVFGGGTKLTVL
Consider B16, for which the Kd amounted to 90.8 nM.

B17: unnamed (protein)
chain 1: QMQLVESGGGVVQPGRSLRLSCAASGFTFRTYGMHWVRQAPGKGLEWVAVIWYDGSNKHYADSVKGRFTITRDNSKNTLNLQMNSLRAEDTAVYYCARSPRYDDYYEAFDVWGQGTMVTVSS
chain 2: SYVLTQPPSVSVAPGQTARITCGGNNLGSKSVHWYQQKPGQAPVLVVYDDSDRPSWIPERFSGSNSGNTATLTISRGEAGDEADYYCQVWDSSSDHVVFGGGTKLTVL
The molecule B17 had a Kd of 186 nM.

B18: unnamed (protein)
chain 1: QMQLVESGGGVVQPGRSLRLSCAASGFTFRTYGMHWVRQAPGKGLEWVAVIWYDGSNKHYADSVKGRFTITRDNSKNTLNLQMNSLRAEDTAVYYCARAPRYDWYVEAFDVWGQGTMVTVSS
chain 2: SYVLTQPPSVSVAPGQTARITCGGNNLGSKSVHWYQQKPGQAPVLVVYDDSDRPSWIPERFSGSNSGNTATLTISRGEAGDEADYYCQVWDSSSDHVVFGGGTKLTVL
Regarding B18, the Kd was determined as 54.2 nM.

B19: unnamed (protein)
chain 1: QMQLVESGGGVVQPGRSLRLSCAASGFTFSTYAMHWVRQAPGKGLEWVAVIWYDGSNKHYADSVKGRFTITRDNSKNTLNLQMNSLRAEDTAVYYCARAPRYDDYWEAFDVWGQGTMVTVSS
chain 2: SYVLTQPPSVSVAPGQTARITCGGNNLGSKSVHWYQQKPGQAPVLVVYDDSDRPSWIPERFSGSNSGNTATLTISRGEAGDEADYYCQVWDSSSDHVVFGGGTKLTVL
B19 yielded a Kd of 718 nM.
